Drawing on PMC4954776 (Nature chemical biology, 2013), this text covers Kd for one protein.

Data set [1] deals with the molecule itself. The data set is described as follows: AUC.
Data set [2] concerns the molecule itself. The data set is described as follows: AUC. This is another data set of the same source.

Where two headings read alike, the source gives them in different places.

B1: BRAF^444-723 kinase domain with 16 solubilization mutations (domain or fragment)
chain: RDSSDDWEIPDGQITVGQRIGSGSFGTVYKGKWHGDVAVKMLNVTAPTPQQLQAFKNEVGVLRKTRHVNILLFMGYSTKPQLAIVTQWCEGSSLYHHLHASETKFEMKKLIDIARQTARGMDYLHAKSIIHRDLKSNNIFLHEDNTVKIGDFGLATVKSRWSGSHQFEQLSGSILWMAPEVIRMQDSNPYSFQSDVYAFGIVLYELMTGQLPYSNINNRDQIIEMVGRGSLSPDLSKVRSNCPKRMKRLMAECLKKKRDERPSFPRILAEIEELARELSG
A word on the Kd: it is the concentration at which binding is half-saturated. Higher therefore signals weaker binding. Regarding B1, the Kd is below 0.78 µM in “AUC [1]” and above 25 µM in the data set “AUC [2]”.
